Laboratory results: patent publication US10640563B2, “Anti-B7-H3 antibodies and antibody drug conjugates” (AbbVie Inc., priority 2016, dated 2020)

B1: chAb18-CZ (conjugate)
VH: QVQLQQSAAELARPGASVKMSCKASGYSFTSYTIHWVKQRPGQGLEWIGYINPNSRNTDYNQKFKDETTLTADRSSSTAYMQLISLTSEDSAVYYCARYSGSTPYWYFDVWGAGTTVTVSS
VL: QIVLTQSPAILSASPGEKVTMTCRASSSVSYMNWYQQKPGSSPKPWIYATSNLASGVPARFSVSVSGTSHSLTISRVEAEDAATYYCQQWSSNPLTFGAGTKLELK
B2: chAb13-CZ (conjugate)
VH: DVQLQESGPDLVKPSQSLSLTCTVTGYSITSGYSWHWIRQFPGNKLEWMGYIHSSGSTNYNPSLKSRISINRDTSKNQFFLQLNSVTTEDTATYYCAGYDDYFEYWGQGTTLTVSS
VL: DIVMTQSQKFMSTSVGDRVSVTCKASQNVGFNVAWYQQKPGQSPKALIYSASYRYSGVPDRFTGSGSGTDFTLTISNVQSEDLAEYFCQQYNSYPFTFGSGTKLEIK
B3: chAb3-CZ (conjugate)
VH: QVQLQQPGAELVKPGASVKLSCKASGYTFSSYWMHWVKQRPGQGLEWIGLIHPDSGSTNYNEMFKNKATLTVDRSSSTAYVQLSSLTSEDSAVYFCAGGGRLYFDYWGQGTTLTVSS
VL: DVVMTQTPLSLPVSLGDQASISCRSSQSLVHSNGDTYLRWYLQKPGQSPKLLIYKVSNRFSGVPDRFSGSGSGTDFTLKITRVEAEDLGVYFCSQSTHVPYTFGGGTKLEIK
modifications: drug conjugate; Synthetic chAb3 VH amino acid sequence; Synthetic chAb3 VL amino acid sequence

How the values were obtained:
NCI-H146 xenograft = experiment: NCI-H146 small cell lung cancer xenograft efficacy; type: in vivo, mouse; conditions: NCI-H146 xenograft in SCID/bg mice; 10 mg/kg IP QDx1
Description: Antibody MSL109 (an IgG1 antibody that binds to cytomegalovirus (CMV) glycoprotein H) was used as a control, both as a naked antibody and as an ADC (conjugated to the same synthon (CZ) as the chAb3, chAb18, and chAb13 antibodies). MSL109 is an isotype matched non-targeting control. The methods of this xenograft assay are described below.
NCI-H146 cells, NCI-1650 cells, and EBC-1 cells were obtained from the American Type Culture Collection (ATCC, Manassas, Va.). The cells were cultured as monolayers in RPMI-1640 (NCI-H146, NCI-H1650) or MEM (EBC-1) culture media (Invitrogen, Carlsbad, Calif.) that was supplemented with 10% Fetal Bovine Serum (FBS, Hyclone, Logan, Utah). To generate xenografts, 5×10^6 viable cells were inoculated subcutaneously into the right flank of immune deficient female SCID/bg mice (Charles River Laboratories, Wilmington, Mass.) respectively. The injection volume was 0.2 mL and composed of a 1:1 mixture of S MEM and Matrigel (BD, Franklin Lakes, N.J.). Tumors were size matched at approximately 200 mm^3. Antibodies and conjugates were formulated in 0.9% sodium chloride for injection and injected intraperitoneally. […] Therapy began within 24 hours after size matching of the tumors. Mice weighed approximately 22 g at the onset of therapy. Tumor volume was estimated two to three times weekly. Measurements of the length (L) and width (W) of the tumor were taken via electronic caliper and the volume was calculated according to the following equation: V=L×W^2/2. Mice were euthanized when tumor volume reached 3,000 mm3 or skin ulcerations occurred. Eight mice were housed per cage. Food and water were available ad libitum. Mice were acclimated to the animal facilities for a period of at least one week prior to commencement of experiments. Animals were tested in the light phase of a 12-hour light: 12-hour dark schedule (lights on at 06:00 hours). As described above, human IgG control antibody (MSL109) was used as a negative control agent.
To refer to efficacy of therapeutic agents, parameters of amplitude (TGImax), durability (TGD) of therapeutic response are used. TGImax is the maximum tumor growth inhibition during the experiment. Tumor growth inhibition is calculated by 100*(1−Tv/Cv) where Tv and Cv are the mean tumor volumes of the treated and control groups, respectively. TGD or tumor growth delay is the extended time of a treated tumor needed to reach a volume of 1 cm^3 relative to the control group. TGD is calculated by 100*(Tt/Ct−1) where Tt and Ct are the median time periods to reach 1 cm^3 of the treated and control groups, respectively.

HCC38 cell line = experiment: Cell cytotoxicity of ADCs in HCC38 cell line; type: cell-based; conditions: CZ conjugates
Description: The humanization of chAb18 generated 10 variants (described above in Table 9) that retained binding to human and cyno B7-H3 as assessed by FACS (the method of which is described above in Example 6). These variants were further characterized for binding by SPR and were successfully conjugated to the Bcl-xL inhibitor synthon CZ using Method A (described above) and assessed for cell cytotoxicity as described in Example 7. The parental chAb18 from which the variants were derived was also tested as a comparator. All humanized variants had similar binding properties as assessed by biacore, and retained binding activity to cell surface expressed as conjugates with the CZ synthon. The cytotoxicity of all of the variants as CZ synthons were similar to the chAb18 from which they were derived.
Humanized chAb18 variants were conjugated to the CZ synthon and tested for cytotoxicity in HCC38 cell line.

[1] = system: HCC38 (breast cancer) cells; experiment: In vitro cell viability assay (CellTiter-Glo), HCC38; type: cell-based, human; conditions: ADC with synthon CZ; HCC38 breast cancer cells; viability after 5 days; read-out: Cytotoxicity (HCC38 cell line IC50nM)
Description: (§1) Nine anti-B7-H3 chimeric antibodies were conjugated to the Bcl-xL inhibiting (Bcl-xLi) synthon CZ (Example 2.1) using conjugation Method A described below. The resulting ADCs (anti-B7-H3 antibodies conjugated to synthon CZ) were tested for binding to cell surface human B7-H3 by FACS (as described in Example 6) and for cell cytotoxicity in cell lines expressing B7-H3. […] Table 6 provides cell surface binding and cytotoxicity activity of anti-B7-H3 chimera ADCs against breast cancer cell HCC38 expressing human B7-H3.
The tumor cell lines HCC38 (breast cancer), NCI-H1650 (NSCLC) and NCI-H847 (small cell lung cancer cell line) were obtained from American Type Culture Collection (ATCC). Cells were grown in 96-well culture plates using recommended growth media overnight at a density of 5×10^3 (HCC38) or 20×10^3 (NCI-H847) or 40×10^3 (NCI-H1650) per well. The following day, treatments were added in fresh media to triplicate wells. Cellular viability was determined 5 days later using the CellTiter-Glo Luminescent Cell Viability Assay kit (Promega), as directed in the manufacturer's protocol. Cell viability was assessed as percentage of control untreated cells.

[2] = Size exclusion chromatography, % aggregate of ADC; type: physicochemical; conditions: ADC with synthon CZ, conjugation Method A
Description: The DAR and percentage aggregation of ADCs synthesized were determined by LC-MS and size exclusion chromatography (SEC), respectively.
Size exclusion chromatography was performed using a Shodex KW802.5 column in 0.2 M potassium phosphate pH 6.2 with 0.25 mM potassium chloride and 15% IPA at a flow rate of 0.75 ml/min. The peak area absorbance at 280 nm was determined for each of the high molecular weight and monomeric eluents by integration of the area under the curve. The % aggregate fraction of the conjugate sample was determined by dividing the peak area absorbance at 280 nm for the high molecular weight eluent by the sum of the peak area absorbances at […] of the high molecular weight and monomeric eluents multiplied by 100%.

[3] = Observation after conjugation to synthon (Method A); type: physicochemical; conditions: after conjugation to Bcl-xLi synthon CZ
Description: as §1
A solution of Bond-Breaker™ tris(2-carboxyethyl)phosphine (TCEP) solution (10 mM, 0.017 mL) was added to a solution of antibody (10 mg/mL, 1 mL) preheated to 37° C. The reaction mixture was kept at 37° C. for 1 hour. The solution of reduced antibody was added to a solution of synthon (3.3 mM, 0.160 mL in DMSO) and gently mixed for 30 minutes. The reaction solution was loaded onto a desalting column (PD10, washed with Dulbecco's phosphate-buffered saline [DPBS] 3× before use), followed by DPBS (3 mL). The purified ADC solution was filtered through a 0.2 micron, low protein-binding 13 mm syringe-filter and stored at 4° C.

Molecule	TGD (%) (NCI-H146 xenograft)	TGImax (%) (NCI-H146 xenograft)	IC50 (HCC38 cell line; Table 10) [nM]	IC50 [1] [nM]	% agg by SEC [2] [%]	Conjugation observation [3]	IC50 (HCC38 cell line; Table 14) [nM]
MSL109: an IgG1 antibody that binds to cytomegalovirus (CMV) glycoprotein H; isotype matched non-targeting control [reference compound]	0	0					
B1	100	90	0.28	0.28	4.3	Clear	
B2	104	81		0.18	8.3	Clear	
B3	109	87		0.17	6.3	Clear	0.17
